According to CN106008708A:

Target: 重组HBx蛋白 (B基因型HBx, GenBank NO.AF100309.1, 大肠杆菌表达) (乙型肝炎病毒(HBV) B基因型)
Assay: ELISA, serial dilution of purified antibody on plates coated with immunogen HBx; positive threshold 0.3

B1: HBx单克隆抗体KY01 (antibody, mouse IgG1, V domains shown)
VH: EVQLQQSGPELVRPGASVKMSCKASGYTFTSYWMHWLKQRPGQGLEWIGMIDPSNSETRLNQKFKDKATLNVDKSSNTAYMQLSSLTSEDSAVYYCAYDGAYWGQGTLVTVSE
VL: DIVLTQSPASLAVSLGQRATISCRASESVDSYGNSFIHWYQQKPGQPPKLLIYRASNLESGIPARFSGSGSRTDFTLTINPVEADDVATYFCQQSNEDPRTFGGGTKLEIKR
Binder B1 has a 抗体滴度(效价) (dilution factor (1:n)) of 2.5e+06.
